According to PMC8027947, “Nucleoside Metabolism Is Induced in Common Bean During Early Seedling Development” (Frontiers in Plant Science, 2021):

Legend:
[1] = substrate: O=c1[nH]c(=O)c2ncn([C@@H]3O[C@H](CO)[C@@H](O)[C@H]3O)c2[nH]1; test: HPLC of nucleoside hydrolysis, Michaelis-Menten; format: biochemical, Phaseolus vulgaris; conditions: 50 mM Tris-HCl pH 7.5, 1 mM DTT, 40 °C, apparent Km
From the text: (§1) HPLC of nucleoside hydrolysis, Michaelis-Menten on PvNSH2

[2] = substrate: OC[C@H]1O[C@@H](n2cnc3c(O)ncnc32)[C@H](O)[C@@H]1O; test: HPLC of nucleoside hydrolysis, Michaelis-Menten; format: biochemical, Phaseolus vulgaris; conditions: 50 mM Tris-HCl pH 7.5, 1 mM DTT, 40 °C, apparent Km
From the text: as §1

B1: PvNSH2 (Phaseolus vulgaris) (protein)
chain: MAADTEPKKIIIDTDPGIDDAMAIFVALQSPEIEVIGLTTIYGNVYTTLATRNALHLLEVAGRTDIPVAEGTHLTLTKGTKLRIADFVHGADGLGNQNFPPPKGKPIEESAASFLVRQAKLNPGKVTVVALGPLTNIALAIELDPEFVKNIGQIVILGGAFAVNGNVNPAAEANIFGDPDAADVVFTSGADILALGINVTHQVILTSSDREILASSNGKFAQYLHKILDVYFSYHQESYNTKGVYLHDPTVVLAAVDPSLVTCIEGIVRVQTSGITRGLTLLYNKQKRFGEIHEWSNKPTVKVAVTVDAPRVMKLVMDRLLDS
notes: no N. benthamiana NSH1 detected by MS; locus assigned by print order
B1 was tested, and the Km [1] was 120 ± 20 µM, the kcat [1] was 13.2 ± 0.26 s⁻¹ and the kcat/Km [1] was 116000 ± 15200 M⁻¹ s⁻¹. The Km [2] was 210 ± 20 µM, the kcat [2] was 2.91 ± 0.14 s⁻¹ and the kcat/Km [2] was 13700 ± 640 M⁻¹ s⁻¹.
